Results from US20220268788A1.
bromoacetamide scaffold with biotin = not defined here

Assays:
Assay in all cases: immunoprecipitation with HCDR3 construct, number of peptides identified by mass spectrometry
[1] = molecular target: T1, Succinate--CoA ligase [ADP-forming] subunit beta, mitochondrial (mouse) (UniProt Q9Z2I9)
T1 sequence (looked up): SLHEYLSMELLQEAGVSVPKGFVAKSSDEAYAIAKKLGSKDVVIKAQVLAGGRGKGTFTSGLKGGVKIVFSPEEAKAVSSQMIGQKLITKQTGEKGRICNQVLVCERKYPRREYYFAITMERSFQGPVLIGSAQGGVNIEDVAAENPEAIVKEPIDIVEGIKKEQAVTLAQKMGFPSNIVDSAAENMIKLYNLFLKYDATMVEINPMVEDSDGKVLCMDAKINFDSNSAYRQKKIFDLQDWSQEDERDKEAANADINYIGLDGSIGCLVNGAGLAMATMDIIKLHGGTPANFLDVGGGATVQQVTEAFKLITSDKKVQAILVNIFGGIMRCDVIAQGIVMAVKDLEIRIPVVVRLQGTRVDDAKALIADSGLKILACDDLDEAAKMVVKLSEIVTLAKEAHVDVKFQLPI

[2] = molecular target: T2, citrate synthase, mitochondrial (mouse) (UniProt Q9CZU6)
T2 sequence (looked up): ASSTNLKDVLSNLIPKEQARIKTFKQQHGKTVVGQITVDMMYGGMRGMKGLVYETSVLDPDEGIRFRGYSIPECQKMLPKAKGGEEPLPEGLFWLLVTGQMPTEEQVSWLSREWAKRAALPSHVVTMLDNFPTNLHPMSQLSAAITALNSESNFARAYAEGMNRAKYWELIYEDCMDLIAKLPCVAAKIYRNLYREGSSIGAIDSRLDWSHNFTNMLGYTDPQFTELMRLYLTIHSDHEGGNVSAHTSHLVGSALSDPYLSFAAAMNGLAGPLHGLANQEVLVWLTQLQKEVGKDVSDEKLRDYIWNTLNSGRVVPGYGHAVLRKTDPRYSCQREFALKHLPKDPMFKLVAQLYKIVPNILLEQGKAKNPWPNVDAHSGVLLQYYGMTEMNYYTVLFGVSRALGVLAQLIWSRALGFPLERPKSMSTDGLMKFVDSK

[3] = molecular target: 78 kDa glucose-regulated protein (mouse) (UniProt P20029)
[4] = molecular target: Heat shock cognate 71 kDa protein (mouse) (UniProt P63017)
Heat shock cognate 71 kDa protein (mouse), sequence (P63017 2-646 limits assumed): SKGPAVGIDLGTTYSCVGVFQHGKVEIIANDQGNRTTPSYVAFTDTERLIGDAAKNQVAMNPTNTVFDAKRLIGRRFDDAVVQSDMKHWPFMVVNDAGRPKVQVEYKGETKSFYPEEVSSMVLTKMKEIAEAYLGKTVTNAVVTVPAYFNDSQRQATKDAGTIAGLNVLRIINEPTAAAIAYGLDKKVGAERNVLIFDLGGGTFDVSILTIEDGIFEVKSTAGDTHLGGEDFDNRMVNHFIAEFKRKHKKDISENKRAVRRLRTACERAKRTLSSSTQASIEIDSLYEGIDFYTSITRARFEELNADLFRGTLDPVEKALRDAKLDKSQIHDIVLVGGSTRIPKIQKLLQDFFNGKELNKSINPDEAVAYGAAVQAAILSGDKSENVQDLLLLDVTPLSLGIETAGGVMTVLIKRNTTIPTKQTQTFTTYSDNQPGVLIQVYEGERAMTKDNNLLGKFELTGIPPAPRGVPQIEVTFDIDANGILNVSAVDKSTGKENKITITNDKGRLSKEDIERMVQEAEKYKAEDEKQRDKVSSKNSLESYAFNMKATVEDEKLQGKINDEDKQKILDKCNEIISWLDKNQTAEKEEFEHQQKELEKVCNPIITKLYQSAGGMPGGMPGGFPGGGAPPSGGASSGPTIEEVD

78 kDa glucose-regulated protein (mouse), sequence (P20029 20-655 limits assumed): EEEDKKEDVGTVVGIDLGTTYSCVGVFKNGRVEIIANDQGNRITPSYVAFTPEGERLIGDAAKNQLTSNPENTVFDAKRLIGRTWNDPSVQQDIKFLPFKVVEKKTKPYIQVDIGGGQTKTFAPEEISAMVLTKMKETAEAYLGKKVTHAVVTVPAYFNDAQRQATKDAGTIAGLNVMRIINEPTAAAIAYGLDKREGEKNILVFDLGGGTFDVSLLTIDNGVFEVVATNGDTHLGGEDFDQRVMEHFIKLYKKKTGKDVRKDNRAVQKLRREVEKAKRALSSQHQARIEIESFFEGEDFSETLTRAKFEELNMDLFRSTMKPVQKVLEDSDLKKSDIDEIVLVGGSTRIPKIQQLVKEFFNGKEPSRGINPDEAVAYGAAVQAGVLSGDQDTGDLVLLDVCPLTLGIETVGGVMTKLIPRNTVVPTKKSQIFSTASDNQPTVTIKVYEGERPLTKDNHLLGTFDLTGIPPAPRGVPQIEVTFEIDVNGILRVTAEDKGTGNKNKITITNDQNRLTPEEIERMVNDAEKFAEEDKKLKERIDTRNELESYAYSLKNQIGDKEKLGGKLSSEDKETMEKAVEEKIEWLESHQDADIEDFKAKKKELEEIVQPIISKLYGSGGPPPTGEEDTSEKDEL

B1: Acute-2 construct (A2), biotinylated cyclic HCDR3 construct (peptide, part only; not given: biotin scaffold, part only)
peptide: Ac-SLYGSSRHTAPISF-NH2
modifications: linker (positions not given here) via bromoacetamide scaffold with biotin; reading uncertain; also: biotinylated bromoacetamide scaffold cyclization, attachment sites not given here
[1]
  # Peptides: 4 peptides
[2]
  # Peptides: 3 peptides

B2: subacute-1 construct (SA1), biotinylated cyclic HCDR3 construct (peptide, part only; not given: biotin scaffold, part only)
peptide: Ac-TDLAVAHPVRY-NH2
modifications: linker (positions not given here) via bromoacetamide scaffold with biotin; reading uncertain; also: biotinylated bromoacetamide scaffold cyclization, attachment sites not given here
[3]
  # Peptides: 6 peptides
[4]
  # Peptides: 6 peptides
